biological target: human Fc (human); experiment: ELISA; negative control

Binder	optical density [OD]
376_D11 (antibody, V domains shown) VH: EVQLLESGGGLVQPGGSLRLSCAASGFTFSSYGMNWVRQAPGKGLEWVANINYNGGYTGYADSVKGRFTISRDNSKNTLYLQMNSLRAEDTAVYYCARSANWHDTALDYWGQGTLVTVSS VL: DIQMTQSPSSLSASVGDRVTITCRASQSILSYLNWYQQKPGKAPKLVIYAATSRASGVPSRFSGSGSGTDFTLTISSLQPEDFATYYCQQSYNNPLTFGGGTKVEIK	0.267
374_C08 (antibody, V domains shown) VH: EVQLLESGGGLVQPGGSLRLSCAASGFTFDSYGMNWVRQAPGKGLEWVSGINYNSGYKSYADSVKGRFTISRDNSKNTLYLQMNSLRAEDTAVYYCARSATWHDTALDYWGQGTLVTVSS VL: DIQMTQSPSSLSASVGDRVTITCRASQSILSYVNWYQQKPGKAPKLLIYAVTSRASGVPSRFSGSGSGTDFTLTISSLQPEDFATYYCQQSYDSPLTFGGGTKVEIK	0.178
376_A06 (antibody, V domains shown) VH: EVQLLESGGGLVQPGGSLRLSCAASGFTFDSYSMNWVRQAPGKGLEWVSGINYNSGYTSYADSVKGRFTISRDNSKNTLYLQMNSLRAEDTAVYYCARSATWHDTALDYWGQGTLVTVSS VL: DIQMTQSPSSLSASVGDRVTITCRASQSILSYLNWYQQKPGKAPKLVIYYVSNRASGVPSRFSGSGSGTDFTLTISSLQPEDFATYYCQQSYDNPLTFGGGTKVEIK	0.262
376_G09 (antibody, V domains shown) VH: EVQLLESGGGLVQPGGSLRLSCAASGFTFDSYSMNWVRQAPGKGLEWVSGINYNSGYKGYADSVKGRFTISRDNSKNTLYLQMNSLRAEDTAVYYCARSANWHDTALDYWGQGTLVTVSS VL: DIQMTQSPSSLSASVGDRVTITCRASQSISYYLNWYQQKPGKAPKLLIYAVTSRASGVPSRFSGSGSGTDFTLTISSLQPEDFATYYCQQSYDNPLTFGGGTKVEIK	0.23
367_C03 (antibody, V domains shown) VH: EVQLLESGGGLVQPGGSLRLSCAASGFTFSSYSMNWVRQAPGKGLEWVANINYNGGYTGYADSVKGRFTISRDNSKNTLYLQMNSLRAEDTAVYYCARSATWHDTALDYWGQGTLVTVSS VL: DIQMTQSPSSLSASVGDRVTITCRASQSILSYVNWYQQKPGKAPKLVIYATTSRASGVPSRFSGSGSGTDFTLTISSLQPEDFATYYCQQSYENPLTFGGGTKVEIK	0.275
365_E02 (antibody, V domains shown) VH: EVQLLESGGGLVQPGGSLRLSCAASGFTFSSYSMNWVRQAPGKGLEWVANINYNGGYTSYADSVKGRFTISRDNSKNTLYLQMNSLRAEDTAVYYCAKSATWHDTHLDYWGQGTLVTVSS VL: DIQMTQSPSSLSASVGDRVTITCRASQSIISYLNWYQQKPGKAPKLLIYAATSRASGVPSRFSGSGSGTDFTLTISSLQPEDFATYYCQQSYENPLTFGGGTKVEIK	0.357
376_C06 (antibody, V domains shown) VH: EVQLLESGGGLVQPGGSLRLSCAASGFTFSSYGMNWVRQAPGKGLEWVAGINYNGGYTSYADSVKGRFTISRDNSKNTLYLQMNSLRAEDTAVYYCARSATWHDTALDYWGQGTLVTVSS VL: DIQMTQSPSSLSASVGDRVTITCRASQSILSYLNWYQQKPGKAPKLVIYAATSRASGVPSRFSGSGSGTDFTLTISSLQPEDFATYYCQQSYDSPLTFGGGTKVEIK	0.29
376_E08 (antibody, V domains shown) VH: EVQLLESGGGLVQPGGSLRLSCAASGFTFSDYGMNWVRQAPGKGLEWVAGINYNGGYTSYADSVKGRFTISRDNSKNTLYLQMNSLRAEDTAVYYCARSANWHDTALDYWGQGTLVTVSS VL: DIQMTQSPSSLSASVGDRVTITCRASQSIVSYVNWYQQKPGKAPKLVIYAATSRASGVPSRFSGSGSGTDFTLTISSLQPEDFATYYCQQSYDSPLTFGGGTKVEIK	0.332
367_H07 (antibody, V domains shown) VH: EVQLLESGGGLVQPGGSLRLSCAASGFTFSSYSMNWVRQAPGKGLEWVANINYNGGYTGYADSVKGRFTISRDNSKNTLYLQMNSLRAEDTAVYYCARSATWHDTALDYWGQGTLVTVSS VL: DIQMTQSPSSLSASVGDRVTITCRASQSILSYVNWYQQKPGKAPKLVIYATTSRASGVPSRFSGSGSGTDFTLTISSLQPEDFATYYCQQSYENPLTFGGGTKVEIK	0.297
376_B07 (antibody, V domains shown) VH: EVQLLESGGGLVQPGGSLRLSCAASGFTFDSYSMNWVRQAPGKGLEWVSGINYNSGYTSYADSVKGRFTISRDNSKNTLYLQMNSLRAEDTAVYYCARSATWHDTALDYWGQGTLVTVSS VL: DIQMTQSPSSLSASVGDRVTITCRASQSILSYLNWYQQKPGKAPKLVIYYVSNRASGVPSRFSGSGSGTDFTLTISSLQPEDFATYYCQQSYDNPLTFGGGTKVEIK	0.234

The remaining lines, values ahead:

optical density [OD]	Binder
0.222	376_C02 (antibody, V domains shown) VH: EVQLLESGGGLVQPGGSLRLSCAASGFTFDSYGMNWVRQAPGKGLEWVSGINYNSGYTSYADSVKGRFTISRDNSKNTLYLQMNSLRAEDTAVYYCARSANWHDTALDYWGQGTLVTVSS VL: DIQMTQSPSSLSASVGDRVTITCRASQSIVSYLNWYQQKPGKAPKLVIYAVTSRASGVPSRFSGSGSGTDFTLTISSLQPEDFATYYCQQSYDSPLTFGGGTKVEIK
0.215	376_D05 (antibody, V domains shown) VH: EVQLLESGGGLVQPGGSLRLSCAASGFTFSSYSMNWVRQAPGKGLEWVSNINYNGGYKGYADSVKGRFTISRDNSKNTLYLQMNSLRAEDTAVYYCARSANWHDTALDYWGQGTLVTVSS VL: DIQMTQSPSSLSASVGDRVTITCRASQSIVSYVNWYQQKPGKAPKLLIYAATSLASGVPSRFSGSGSGTDFTLTISSLQPEDFATYYCQQSYDTPLTFGGGTKVEIK
0.418	370_G12 (antibody, V domains shown) VH: EVQLLESGGGLVQPGGSLRLSCAASGFTFSSYSMNWVRQAPGKGLEWVAGINYNGGYKGYADSVKGRFTISRDNSKNTLYLQMNSLRAEDTAVYYCARSATWHDTALDYWGQGTLVTVSS VL: DIQMTQSPSSLSASVGDRVTITCRASQSIITYLNWYQQKPGKAPKLLIYAATSLASGVPSRFSGSGSGTDFTLTISSLQPEDFATYYCQQSDESPLTFGGGTKVEIK
0.22	376_G08 (antibody, V domains shown) VH: EVQLLESGGGLVQPGGSLRLSCAASGFTFDSYGMNWVRQAPGKGLEWVANINYNGGYTSYADSVKGRFTISRDNSKNTLYLQMNSLRAEDTAVYYCARSANWHDTALDYWGQGTLVTVSS VL: DIQMTQSPSSLSASVGDRVTITCRASQSILSYVNWYQQKPGKAPKLVIYAATSRASGVPSRFSGSGSGTDFTLTISSLQPEDFATYYCQQSYDTPLTFGGGTKVEIK
0.438	376_C12 (antibody, V domains shown) VH: EVQLLESGGGLVQPGGSLRLSCAASGFTFSSYSMNWVRQAPGKGLEWVAGINYNGGYTGYADSVKGRFTISRDNSKNTLYLQMNSLRAEDTAVYYCARSANWHDTALDYWGQGTLVTVSS VL: DIQMTQSPSSLSASVGDRVTITCRASQSILTYVNWYQQKPGKAPKLLIYAATSRASGVPSRFSGSGSGTDFTLTISSLQPEDFATYYCQQSYDSPLTFGGGTKVEIK
0.556	365_G12 (antibody, V domains shown) VH: EVQLLESGGGLVQPGGSLRLSCAASGFTFSSYGMNWVRQAPGKGLEWVAGINYNSGYTSYADSVKGRFTISRDNSKNTLYLQMNSLRAEDTAVYYCARSATWHDTALDYWGQGTLVTVSS VL: DIQMTQSPSSLSASVGDRVTITCRASQSILSYVNWYQQKPGKAPKLVIYAATSRASGVPSRFSGSGSGTDFTLTISSLQPEDFATYYCQQSYSNPLTFGGGTKVEIK
0.281	376_H09 (antibody, V domains shown) VH: EVQLLESGGGLVQPGGSLRLSCAASGFTFSDYSMNWVRQAPGKGLEWVANINYNGGYTGYADSVKGRFTISRDNSKNTLYLQMNSLRAEDTAVYYCARSANWHDTALDYWGQGTLVTVSS VL: DIQMTQSPSSLSASVGDRVTITCRASQSIITYLNWYQQKPGKAPKLVIYYVSNLPSGVPSRFSGSGSGTDFTLTISSLQPEDFATYYCQQSYDSPLTFGGGTKVEIK
0.234	376_E03 (antibody, V domains shown) VH: EVQLLESGGGLVQPGGSLRLSCAASGFTFSSYGMNWVRQAPGKGLEWVANINYNGGYTGYADSVKGRFTISRDNSKNTLYLQMNSLRAEDTAVYYCARSANWHDTALDYWGQGTLVTVSS VL: DIQMTQSPSSLSASVGDRVTITCRASQSILSYVNWYQQKPGKAPKLVIYAATSLASGVPSRFSGSGSGTDFTLTISSLQPEDFATYYCQQSYDLPLTFGGGTKVEIK
0.245	368_D10 (antibody, V domains shown) VH: EVQLLESGGGLVQPGGSLRLSCAASGFTFDSYGMNWVRQAPGKGLEWVAGINYNSGYTSYADSVKGRFTISRDNSKNTLYLQMNSLRAEDTAVYYCARSATWHDTALDYWGQGTLVTVSS VL: DIQMTQSPSSLSASVGDRVTITCRASQSILSYLNWYQQKPGKAPKLVIYAATSRASGVPSRFSGSGSGTDFTLTISSLQPEDFATYYCQQSYDSPLTFGGGTKVEIK
0.32	369_C10 (antibody, V domains shown) VH: EVQLLESGGGLVQPGGSLRLSCAASGFTFSSYSMNWVRQAPGKGLEWVANINYNGGYTSYADSVKGRFTISRDNSKNTLYLQMNSLRAEDTAVYYCARSATWHDTALDYWGQGTLVTVSS VL: DIQMTQSPSSLSASVGDRVTITCRASQSIVTYLNWYQQKPGKAPKLLIYAATSLHSGVPSRFSGSGSGTDFTLTISSLQPEDFATYYCQQSDSLPLTFGGGTKVEIK
0.318	376_H10 (antibody, V domains shown) VH: EVQLLESGGGLVQPGGSLRLSCAASGFTFDSYSMNWVRQAPGKGLEWVSGINYNSGYKSYADSVKGRFTISRDNSKNTLYLQMNSLRAEDTAVYYCARSANWHDTALDYWGQGTLVTVSS VL: DIQMTQSPSSLSASVGDRVTITCRASQSILTYLNWYQQKPGKAPKLVIYAATSRHSGVPSRFSGSGSGTDFTLTISSLQPEDFATYYCQQSYDSPLTFGGGTKVEIK
0.41	368_C01 (antibody, V domains shown) VH: EVQLLESGGGLVQPGGSLRLSCAASGFTFDSYGMNWVRQAPGKGLEWVAGINYNGGYTGYADSVKGRFTISRDNSKNTLYLQMNSLRAEDTAVYYCARSATWHDTALDYWGQGTLVTVSS VL: DIQMTQSPSSLSASVGDRVTITCRASQSIITYLNWYQQKPGKAPKLLIYAATSRASGVPSRFSGSGSGTDFTLTISSLQPEDFATYYCQQSYDSPLTFGGGTKVEIK

Source: patent US20210380703A1
